For the assay, the target named is T1, EGFR protein (UniProt P00533 25-645).
T1 construct: EGFR; source: bought: R&D Systems (1095-ER)
Briefly: pull-down; Fc fusion protein and its partner incubated in lysis buffer overnight at 4 °C; Protein A/G magnetic beads; both orientations (N-EGFR-Fc with Ephrin A1; Ephrin A1-Fc with EGFR protein). As to conditions: both partners purified.

B1: Ephrin A1-Fc protein (Fc fusion, UniProt P20827 19-182, looked up)
chain: DRHTVFWNSSNPKFRNEDYTIHVQLNDYVDIICPHYEDHSVADAAMEQYILYLVEHEEYQLCQPQSKDQVRWQCNRPSAKHGPEKLSEKFQRFTPFTLGKEFKEGHSYYYISKPIHQHEDRCLRLKVTVSGKITHSPQAHDNPQEKRLAADDPEVRVLHSIGHS
notes: Ephrin A1; source: bought: R&D Systems (6417-A1)
Regarding B1, the binding result is “binds”.

The values are drawn from paper PMC11876641, “Ephrin A1 functions as a ligand of EGFR to promote EMT and metastasis in gastric cancer” (The EMBO Journal, 2025).
